Assay results reported in article doi:10.1101/318345, “Three enzymes and one substrate; regulation of flux through the glyoxylate shunt in the opportunistic pathogen, Pseudomonas aeruginosa” (bioRxiv, 2018).

Target: the molecule itself
Assay: SEC-MALS; TSK-Gel G3000 SWXL column, 150 mM NaCl, 20 mM Tris-HCl (pH 8.0), 0.5 mL/min, Mini-DAWN light scattering detector

Row | Protein | stoichiometry N
1 | Pseudomonas aeruginosa isocitrate lyase (ICL, PA2634) (enzyme, Pseudomonas aeruginosa strain PAO1, UniProt Q9I0K4 1-531, looked up, isocitrate lyase (ICL), ORF PA2634 of Pseudomonas aeruginosa strain PAO1, 531 amino acids; The ORF was cloned into a pMAL-c2X derivative with a hexa-histidine tag on the N-terminus of MBP; The His6-MBP tag was cut off with Factor Xa; Crystallised with Ca2+ and glyoxylate; also called P. aeruginosa ICL; source: E. coli DH5α, purified (amylose resin, Factor Xa cleavage, Ni-NTA flow through); not …) MSAYQNEIKAVAALKEKNGSSWSAINPEYAARMRIQNRFKTGLDIAKYTAAIMRKDMAEYDADSSVYTQSLGCWHGFIGQQKLISIKKHLKTTNKRYLYLSGWMVAALRSDFGPLPDQSMHEKTAVSGLIEELYTFLRQADARELDLLFTGLDAARAAGDKAKEAELLAQIDNFETHVVPIIADIDAGFGNAEATYLLAKKMIEAGACCIQIENQVSDEKQCGHQDGKVTVPHIDFLAKINAVRYAFLELGVDDGVIVARTDSLGAGLTKQIAVTNEPGDLGDLYNSFLDCEEISESELGNGDVVIKREGKLLRPKRLASNLFQFRKGTGEDRCVLDCITSLQNGADLLWIETEKPHVGQIKAMVDRIREVIPNAKLVYNNSPSFNWTLNFRQQVFDAFVAEGKDVSAYDRNKLMSVEYDDTELAKVADEKIRTFQRDGSAHAGIFHHLITLPTYHTAALSTDNLAKGYFADEGMLAYVKGVQRQELRQGIACVKHQNMAGSDIGDNHKEYFAGEAALKASGKDNTMNQFH | 4
2 | Pseudomonas aeruginosa isocitrate dehydrogenase ICD (PA2623) (enzyme, Pseudomonas aeruginosa strain PAO1, UniProt Q02NB5 1-418, looked up, isocitrate dehydrogenase ICD, ORF PA2623 of Pseudomonas aeruginosa strain PAO1, calculated molecular mass 45 kDa; The ORF was cloned into a pMAL-c2X derivative with a hexa-histidine tag on the N-terminus of MBP; The His6-MBP tag was cut off with Factor Xa; also called P. aeruginosa ICD; source: E. coli DH5α, purified (amylose resin, Factor Xa cleavage, Ni-NTA flow through); not shown: His6, …) MGYQKIQVPATGDKITVNADMSLSVPKNPIIPFIEGDGIGVDISPVMIKVVDAAVEKAYKGERKIAWMEVYAGEKATQVYDQDTWLPQETLDAVRDYVVSIKGPLTTPVGGGIRSLNVALRQQLDLYVCQRPVRWFEGVPSPVKKPGDVDMVIFRENSEDIYAGVEWKAGSPEAEKVIKFLTEEMGVKKIRFTENCGIGIKPVSQEGTKRLVRKALQYAVDNDRSSVTLVHKGNIMKFTEGAFKDWGYEVARDEFGAELLDGGPWMQFKNPKTGKNVVVKDVIADAMLQQILLRPAEYDVIATLNLNGDYLSDALAAEVGGIGIAPGANLSDSVAMFEATHGTAPKYAGQDKVNPGSLILSAEMMLRHMGWTEAADLIIKGTNGAIAAKTVTYDFERLMDGATLLSCSEFGDAMIAKM | 2
